# T1: mSosI ( (endogenous in murine ES …, UniProt Q62245 1-1319))
# T1 construct: Its expression in ES cells was confirmed by immunoblot of whole cell lysate; also called mSos1
# T1 sequence (looked up): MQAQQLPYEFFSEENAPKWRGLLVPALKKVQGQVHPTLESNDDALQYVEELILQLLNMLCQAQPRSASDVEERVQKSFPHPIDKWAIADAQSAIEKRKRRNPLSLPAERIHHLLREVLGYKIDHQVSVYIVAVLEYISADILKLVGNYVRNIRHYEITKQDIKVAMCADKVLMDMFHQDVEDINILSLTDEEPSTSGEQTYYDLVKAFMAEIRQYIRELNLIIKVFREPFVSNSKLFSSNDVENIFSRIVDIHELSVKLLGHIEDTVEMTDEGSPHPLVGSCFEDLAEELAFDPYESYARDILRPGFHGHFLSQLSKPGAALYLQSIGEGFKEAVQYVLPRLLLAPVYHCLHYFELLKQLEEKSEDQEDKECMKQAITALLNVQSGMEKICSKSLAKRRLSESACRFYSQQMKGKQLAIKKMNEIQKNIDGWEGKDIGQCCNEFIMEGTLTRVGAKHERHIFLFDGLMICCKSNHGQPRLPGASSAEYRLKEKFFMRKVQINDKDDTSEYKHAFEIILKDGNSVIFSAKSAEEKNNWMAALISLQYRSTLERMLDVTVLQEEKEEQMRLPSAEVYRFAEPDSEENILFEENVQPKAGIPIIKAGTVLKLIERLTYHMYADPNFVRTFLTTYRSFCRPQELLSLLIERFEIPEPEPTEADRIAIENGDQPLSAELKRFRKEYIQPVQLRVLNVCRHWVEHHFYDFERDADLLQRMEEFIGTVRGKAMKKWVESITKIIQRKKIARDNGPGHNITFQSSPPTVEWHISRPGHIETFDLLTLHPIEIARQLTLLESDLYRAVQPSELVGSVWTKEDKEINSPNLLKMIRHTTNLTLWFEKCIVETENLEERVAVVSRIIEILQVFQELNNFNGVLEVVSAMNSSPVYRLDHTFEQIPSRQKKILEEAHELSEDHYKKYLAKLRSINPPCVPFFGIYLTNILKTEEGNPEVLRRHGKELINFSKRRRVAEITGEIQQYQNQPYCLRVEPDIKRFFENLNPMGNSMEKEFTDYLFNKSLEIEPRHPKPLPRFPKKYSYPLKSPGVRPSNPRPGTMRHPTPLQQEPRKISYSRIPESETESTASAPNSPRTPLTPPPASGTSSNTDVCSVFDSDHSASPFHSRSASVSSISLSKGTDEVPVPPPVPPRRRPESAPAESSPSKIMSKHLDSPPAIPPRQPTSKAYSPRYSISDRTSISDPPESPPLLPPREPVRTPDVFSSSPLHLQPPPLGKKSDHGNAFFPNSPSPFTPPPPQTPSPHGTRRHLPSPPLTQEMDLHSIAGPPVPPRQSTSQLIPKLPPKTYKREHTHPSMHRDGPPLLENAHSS
# B1: s-SHIP (stem-SHIP; SH2-lacking isoform of SH2-containing inositol 5'-phosphatase, approximately 104 kd) (enzyme, mouse, UniProt Q9ES52-5 1-928, looked up)
# chain: MVAKLSQLTSLLSSIEDKVKSLLHEGSESTNRRSLIPPVTFEVKSESLGIPQKMHLKVDVESGKLIVKKSKDGSEDKFYSHKKILQLIKSQKFLNKLVILVETEKEKILRKEYVFADSKKREGFCQLLQQMKNKHSEQPEPDMITIFIGTWNMGNAPPPKKITSWFLSKGQGKTRDDSADYIPHDIYVIGTQEDPLGEKEWLELLRHSLQEVTSMTFKTVAIHTLWNIRIVVLAKPEHENRISHICTDNVKTGIANTLGNKGAVGVSFMFNGTSLGFVNSHLTSGSEKKLRRNQNYMNILRFLALGDKKLSPFNITHRFTHLFWLGDLNYRVELPTWEAEAIIQKIKQQQYSDLLAHDQLLLERKDQKVFLHFEEEEITFAPTYRFERLTRDKYAYTKQKATGMKYNLPSWCDRVLWKSYPLVHVVCQSYGSTSDIMTSDHSPVFATFEAGVTSQFVSKNGPGTVDSQGQIEFLACYATLKTKSQTKFYLEFHSSCLESFVKSQEGENEEGSEGELVVRFGETLPKLKPIISDPEYLLDQHILISIKSSDSDESYGEGCIALRLETTEAQHPIYTPLTHHGEMTGHFRGEIKLQTSQGKMREKLYDFVKTERDESSGMKCLKNLTSHDPMRQWEPSGRVPACGVSSLNEMINPNYIGMGPFGQPLHGKSTLSPDQQLTAWSYDQLPKDSSLGPGRGEGPPTPPSQPPLSPKKFSSSTANRGPCPRVQEARPGDLGKVEALLQEDLLLTKPEMFENPLYGSVSSFPKLVPRKEQESPKMLRKEPPPCPDPGISSPSIVLPKAQEVESVKGTSKQAPVPVLGPTPRIRSFTCSSSAEGRMTSGDKSQGKPKASASSQAPVPVKRPVKPSRSEMSQQTTPIPAPRPPLPVKSPAVLQLQHSKGRDYRDNTELPHHGKHRQEEGLLGRTAMQ
# notes: also called 8-SHIP protein isoform; 104-kd and 97-kd proteins
# B2: Shc adapter protein (other, UniProt P98083 1-579, looked up)
# chain: MDLLPPKPKYNPLRNESLSSLEEGASGSTPPEELPSPSASSLGPILPPLPGDDSPTTLCSFFPRMSNLKLANPAGGRLGPKGEPGKAAEDGEGSAGAALRDSGLLPLLQDMNKLSGGGGRRTRVEGGQLGGEEWTRHGSFVNKPTRGWLHPNDKVMGPGVSYLVRYMGCVEVLQSMRALDFNTRTQVTREAISLVCEAVPGAKGATRRRKPCSRPLSSILGRSNLKFAGMPITLTVSTSSLNLMAADCKQIIANHHMQSISFASGGDPDTAEYVAYVAKDPVNQRACHILECPEGLAQDVISTIGQAFELRFKQYLRNPPKLVTPHDRMAGFDGSAWDEEEEEPPDHQYYNDFPGKEPPLGGVVDMRLREGAARPTLPSAQMSSHLGATLPIGQHAAGDHEVRKQMLPPPPCPGRELFDDPSYVNIQNLDKARQAGGGAGPPNPSLNGSAPRDLFDMKPFEDALRVPPPPQSMSMAEQLQGEPWFHGKLSRREAEALLQLNGDFLVRESTTTPGQYVLTGLQSGQPKHLLLVDPEGVVRTKDHRFESVSHLISYHMDNHLPIISAGSELCLQQPVDRKV
# notes: Its expression in ES cells was confirmed by immunoblot of whole cell lysate
# Tests used:
# mSosI = biological target: T1, mSosI; test: co-immunoprecipitation from ES-TL1 cell lysate with P2C6 anti-SHIP antibody, immunoblot for mSosI
# Description: (§1) FIG. 6 illustrates how ES cells express the 8-SHIP protein isoform that associates with the Grb2 adapter protein. (A) Immunoprecipitation and immunoblot detection of s-SHIP in ES cell lysates. […] No tyrosine phosphorylation of these proteins was detected when they were probed with the 4G10 anti-phosphotyrosine antibody. For comparison, lysates from 293T cells transfected with SHIP cDNA (lane 1) and s-SHIP cDNA (lane 2) were included in the blots. To further assess the tyrosine phosphorylation status of s-SHIP, timed LIF stimulation studies were performed. ES-TL1 cells incubated for 5 hours without LIF were stimulated with 2000 U/mL LIF for 0, 2, 5, or 10 minutes and were rapidly lysed. Equal amounts of total protein were immunoprecipitated with the P2C6 antibody and probed separately with the P2C6 and 4G10 antibodies (lanes 6-9). No tyrosine phosphorylation of s-SHIP was detected at any time point with the 4G10 antibody. For comparison, A20 8-lymphoid cells were stimulated with antiIgG antibody for 0 or 5 minutes, lysed, immunoprecipitated with P2C6, and probed with P2C6 and 4G10 (lanes 3, 4), showing prominent tyrosine phosphorylation of SHIP at 5 minutes. Molecular mass standards are indicated on the right. (B) s-SHIP associates with Grb2 but not Shc in ES cells. ES-TL1 cell lysates were prepared and immunoprecipitated with the […] anti-SHIP monoclonal antibody. […]
# [1] = biological target: B1; test: co-immunoprecipitation from ES-TL1 cell lysate with P2C6 anti-SHIP antibody, immunoblot for Shc
# Description: as §1
binding result (mSosI),binding result [1],Binder
no binding,,B1
,no binding,B2
